Experimental data as given in US20160097044A1, “Antimicrobial Enzyme Fusions Reduce Resistance and Kill Intracellular Staphylococcus aureus” (The United States of America, as Represented by the …, priority 2014, published 2016).

Assays:
[1] = tested on: intracellular S. aureus Newbould 305 in bovine mammary epithelial cell line (MAC-T); test: Intracellular S. aureus eradication assay in MAC-T cells; assay type: cell-based; details: 25 μg in 1 ml DMEM, 2.5 h
Description: FIGS. 5a-5e depict peptidoglycan hydrolase-protein transduction domain (PGH-PTD) eradication of intracellular S. aureus in cultured cells. Cultured cells were infected, treated with gentamicin to kill extracellular S. aureus, and then treated with the peptidoglycan hydrolases indicated. All results are standardized to the gentamicin (GENT) only control. Nomenclature of the peptidoglycan hydrolase constructs is as in FIG. 1. Asterisks indicate statistical significance detected with single factor ANOVA (α=0.05) with paired t-test posthoc analyses α=0.05 adjusted with Sidák correction for multiple comparisons (for all cases p<0.01). […] Error bars represent SEM. […] Yellow staining in the combined panel represents intracellular co-localization (in a single plane as determined by z-stack analysis) of both S. aureus and K-L-PTD1 (blue arrow). […]
Three similar intracellular S. aureus eradication assays from three different labs were optimized for (A) a cultured bovine mammary epithelial cell line (MAC-T, Nexia Biotechnologies, Quebec, Canada; Almeida, supra), (B) primary C57BL/6 mouse-derived osteoblasts (mOBs) (McCall et al. 2008. J. Bone Miner. Res. 23: 30-40) or (C) human brain microvascular endothelial cells (hBMEC; Stins, supra). […] The cell lysate was subjected to serial dilution plating, and the resultant CFUs were counted and normalized to the gentamicin control for each assay. […]

S. aureus Newbould 305 = test: Turbidity reduction assay; assay type: cell-based; details: 1 μM enzyme, cells at OD600nm 1.0, FIG. 6a
Procedure: FIG. 6a depicts the specific activity of peptidoglycan hydrolase fusion constructs in vitro in a turbidity reduction assay with S. aureus Newbould 305 resuspended in lysis buffer to an OD600nm of 1.0 and treated with 1 μM final concentrations of each peptidoglycan hydrolase. The maximum specific activity for three experiments are represented as an average with SEM error bars. FIG. 6b depicts the bacterial burden in mice with mastitis treated with recombinant peptidoglycan hydrolases. Colony Forming Units (CFUs) from infected murine mammary glands following a single treatment with 50 μl of 25 μM peptidoglycan hydrolase (1.25 nmol). Each data point represents the average of duplicate bacterial platings. The horizontal bars represent the average CFU/mg for each group. FIG. 6c illustrates the TNFα response in mice with mastitis that were treated with peptidoglycan hydrolases. Data represents a minimum of 7 measurements in duplicate. Log TNFα was used for statistical analysis. Single asterisks indicate a significant difference from buffer control (p<0.05); double asterisks indicate a significant difference from the parental enzyme (p<0.05).
FIG. 7 depicts a turbidity reduction assay of select peptidoglycan hydrolases against S. aureus Newbould 305. Bacterial cells were resuspended in lysis buffer to an OD600nm of 1.0 and lysed with 1 μM final concentrations of each peptidoglycan hydrolase. The maximum rate of ΔOD of three experiments are represented as an average with error bars representing SEM. Double asterisks indicate significant difference from parental. Mean comparisons were performed with one way ANOVA (P=3.3×10^−5) with t test post hoc analysis with Sidák adjusted alpha (p<0.01).

[2] = bovine, in vivo; cited from earlier work

Substance	intracellular S. aureus CFUs relative to gentamicin only control [1]	turbidity reduction (in vitro lytic) activity (S. aureus Newbould 305)	treatments after which specific antibodies were detectable [2]
K-L: both LysK lytic domains fused to the N-terminus of lysostaphin; SEQ ID NO:5, protein SEQ ID NO:6	reduced the intracellular bacteria recovered	slightly more effective at lysing S. aureus strain Newbould 305 than lysostaphin	–
L: 247 amino acid mature (secreted) lysostaphin, staphylolytic bacteriocin, C-terminal His6 tag; SEQ ID NO:1 [reference compound]	–	–	18-21 treatments
